Target: T1, HA-GCM1 (UniProt Q9NP62 1-436)
T1 construct: Expressed in transfected 293T or Hep3B cells; also called glial cells missing 1; pHA-GCM1; not shown: N-terminal HA tag
T1 sequence (looked up): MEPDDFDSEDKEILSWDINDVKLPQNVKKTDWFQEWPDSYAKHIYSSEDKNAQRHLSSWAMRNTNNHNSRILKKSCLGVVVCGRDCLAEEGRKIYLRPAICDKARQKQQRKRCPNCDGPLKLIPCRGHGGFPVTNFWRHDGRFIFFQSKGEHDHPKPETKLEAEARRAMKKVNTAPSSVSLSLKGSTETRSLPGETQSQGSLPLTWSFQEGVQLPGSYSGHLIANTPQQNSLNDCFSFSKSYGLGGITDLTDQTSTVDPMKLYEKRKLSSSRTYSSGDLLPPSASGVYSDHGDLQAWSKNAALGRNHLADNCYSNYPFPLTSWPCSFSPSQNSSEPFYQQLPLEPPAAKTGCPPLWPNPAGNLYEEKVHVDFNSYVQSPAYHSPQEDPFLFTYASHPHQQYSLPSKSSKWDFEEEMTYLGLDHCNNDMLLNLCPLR
Experiment: co-immunoprecipitation with HA and FLAG mAbs in transfected 293T cells
Text: 293T cells were transfected with different combinations of pΔNp63α-FLAG, pOVOL1-FLAG, and pHA-GCM1 for co-immunoprecipitation analysis with HA and FLAG mAbs. […] 293T cells were transfected with pHA-GCM1 and different pΔNp63α-FLAG plasmids encoding full-length or deletion mutant ΔNp63α-FLAG proteins, followed by co-immunoprecipitation analysis with HA and FLAG mAbs. Schematic representation of functional domains in ΔNp63α is presented. DBD: DNA-binding domain; OD: oligomerization domain; SAM: sterile alpha motif; TID: transactivation inhibitory domain. In a separate experiment, 293T cells were transfected with pΔNp63α-HA and pGAL4-FLAG or different pGAL4-GCM1-FLAG plasmids encoding full-length or deletion mutant GAL4GCM1-FLAG proteins for co-immunoprecipitation analysis with HA and FLAG mAbs. Schematic representation of functional domains in GCM1 is presented. TAD: transactivation domain. […] Glutathione-conjugated agarose beads pre-bound with GST, GST-SAM or GST-OD were incubated with recombinant GCM1-FLAG protein in pull-down assays. […] Mock and ΔNp63α-FLAG-expressing BeWo cells were subjected to immunoblotting (left) and quantitative RT-PCR (right) analyses of GCM1, HTRA4, and hCGβ proteins and transcripts. […] BeWo cells stably expressing scramble or GCM1 shRNA were subjected to immunoblotting (left) and quantitative RT-PCR (right) analyses of GCM1 and ΔNp63α proteins and transcripts.

- binding result: no binding
B1: OVOL1-FLAG (other, human, UniProt O14753 1-267, looked up)
chain: MPRAFLVKKPCVSTCKRNWSELPDEERGEIYVPVSLGFCPPQPYREPEPSVAEPPSCPLALNMSLRDSSYSMAPGPCVVAQLPSEDMGHLTDPQSRDHGFLRTKMKVTLGDSPSGDLFTCRVCQKAFTYQRMLNRHMKCHNDVKRHLCTYCGKGFNDTFDLKRHVRTHTGVRPYKCSLCDKAFTQRCSLESHLKKIHGVQQKYAYKERRAKLYVCEECGCTSESQEGHVLHLKEHHPDSPLLRKTSKKVAVALQNTVTSLLQGSPHL
notes: also called pOVOL1-FLAG; pOVOL-1-FLAG; not shown: C-terminal FLAG tag

From patent US20220155314A1 (ACADEMIA SINICA, published 2022)
